The target in assay [1] is pericentrin (Xenopus egg extract) (Xenopus laevis (endogenous in egg extracts)). Briefly: quantitative Western blot. As to conditions: scale: γ-tubulin molecules per pericentrin molecule. Background: A western blot detects proteins with antibodies after separation by electrophoresis.
Assay [2] has as its target γ-tubulin (Xenopus egg extract) (Xenopus laevis (endogenous in egg extracts)) (UniProt P23330). Briefly: co-IP.

Among the data in publication PMC2132723 are stoichiometry N and percent of pericentrin co-depleted with γ-tubulin values, retold here.

Substance “γ-tubulin (Xenopus egg extract) (from UniProt P23330 1-451) (natural protein)” displayed a stoichiometry N in assay [1] of 30.

In assay [2], “pericentrin (Xenopus egg extract) (natural protein)” showed a percent of pericentrin co-depleted with γ-tubulin of 85 to 95%.

By stoichiometry N is commonly meant the number of molecules, sites or subunits per partner or assembly.
